# Assay results as given in US20030027981A1, “Urokinase-type plasminogen activator receptor” (priority 1989, published 2003).
# Like-named read-outs stand apart in the source and are kept apart here.
# Experiments:
# HT-1080 cells = assay: Plasmin release from plasmin-loaded HT-1080 cells; type: cell-based, human; conditions: 1 mM tranexamic acid added to the serum-containing medium
# Experimental: FIG. 24. Plasmin release from HT-1080 cells into serum-free and serum-containing media. Confluent layers of HT-1080 cells were first loaded with plasmin by incubation for 1 hour at 37° C. in serum-free MEM medium (0.5 ml) containing human plasmin (0-5 μg/ml). After rinsing the cell layers three times, they were incubated for 2 hours at 37° C. with either serum-free medium (∘ - - - ∘), medium containing 10% heat-inactivated and plasminogen-depleted fetal calf serum (● - - - ●), or the latter with tranexamic acid (100 μM) (▪ - - - ▪). Plasmin was then assayed in the cell-bound fraction (A) and the media (B). At the time of transfer to new media, there was approximately 28 ng of plasmin bound to the cells from the pretreatment with 2.5 μg of plasmin/well.
# In the Examples concerning plasmin binding to cells from medium, human plasmin (approximately 18 CU/mg; Kabi Diagnostica, Stockholm, Sweden) was added to the cultures at final concentrations of 0-5 μg/ml. The cells were incubated for 3 hours at 37° C. before assay of cell-bound and supernatant plasmin (see below). For plasmin release experiments, cells were loaded for 1 hour at 37° C. with 0-5 μg/ml plasmin in serum-free medium, then rinsed three times with MEM.
# Plasmin bound to the cell layer was recovered and assayed as follows. After harvest of culture medium, the cells were rinsed three times with PBS (plasmin assays of further rinses were negative); then the bound plasmin was specifically eluted (Miles, L. A., and E. F. Plow, “Binding and activation of plasminogen on the platelet surface”, J. Biol. Chem. 260: 4303-4311, 1985) with a solution of 1 mM tranexamic acid in the same rinsing solution (150 μl/well). Plasmin activity was assayed in eluate samples (50 μl) as above with an incubation time of 3 hours at 37° C. Tranexamic acid at 1 mM had no effect on the thioesterase activity of plasmin in these assays.
# laminin = conditions: immobilized laminin; cited from earlier work
# cultured cells = conditions: plasminogen, cultured cells; cited from earlier work
# fibronectin = fibronectin (Homo sapiens, UniProt P02751); conditions: immobilized fibronectin; cited from earlier work
# Sequence of fibronectin (P02751 32-2477, species assumed): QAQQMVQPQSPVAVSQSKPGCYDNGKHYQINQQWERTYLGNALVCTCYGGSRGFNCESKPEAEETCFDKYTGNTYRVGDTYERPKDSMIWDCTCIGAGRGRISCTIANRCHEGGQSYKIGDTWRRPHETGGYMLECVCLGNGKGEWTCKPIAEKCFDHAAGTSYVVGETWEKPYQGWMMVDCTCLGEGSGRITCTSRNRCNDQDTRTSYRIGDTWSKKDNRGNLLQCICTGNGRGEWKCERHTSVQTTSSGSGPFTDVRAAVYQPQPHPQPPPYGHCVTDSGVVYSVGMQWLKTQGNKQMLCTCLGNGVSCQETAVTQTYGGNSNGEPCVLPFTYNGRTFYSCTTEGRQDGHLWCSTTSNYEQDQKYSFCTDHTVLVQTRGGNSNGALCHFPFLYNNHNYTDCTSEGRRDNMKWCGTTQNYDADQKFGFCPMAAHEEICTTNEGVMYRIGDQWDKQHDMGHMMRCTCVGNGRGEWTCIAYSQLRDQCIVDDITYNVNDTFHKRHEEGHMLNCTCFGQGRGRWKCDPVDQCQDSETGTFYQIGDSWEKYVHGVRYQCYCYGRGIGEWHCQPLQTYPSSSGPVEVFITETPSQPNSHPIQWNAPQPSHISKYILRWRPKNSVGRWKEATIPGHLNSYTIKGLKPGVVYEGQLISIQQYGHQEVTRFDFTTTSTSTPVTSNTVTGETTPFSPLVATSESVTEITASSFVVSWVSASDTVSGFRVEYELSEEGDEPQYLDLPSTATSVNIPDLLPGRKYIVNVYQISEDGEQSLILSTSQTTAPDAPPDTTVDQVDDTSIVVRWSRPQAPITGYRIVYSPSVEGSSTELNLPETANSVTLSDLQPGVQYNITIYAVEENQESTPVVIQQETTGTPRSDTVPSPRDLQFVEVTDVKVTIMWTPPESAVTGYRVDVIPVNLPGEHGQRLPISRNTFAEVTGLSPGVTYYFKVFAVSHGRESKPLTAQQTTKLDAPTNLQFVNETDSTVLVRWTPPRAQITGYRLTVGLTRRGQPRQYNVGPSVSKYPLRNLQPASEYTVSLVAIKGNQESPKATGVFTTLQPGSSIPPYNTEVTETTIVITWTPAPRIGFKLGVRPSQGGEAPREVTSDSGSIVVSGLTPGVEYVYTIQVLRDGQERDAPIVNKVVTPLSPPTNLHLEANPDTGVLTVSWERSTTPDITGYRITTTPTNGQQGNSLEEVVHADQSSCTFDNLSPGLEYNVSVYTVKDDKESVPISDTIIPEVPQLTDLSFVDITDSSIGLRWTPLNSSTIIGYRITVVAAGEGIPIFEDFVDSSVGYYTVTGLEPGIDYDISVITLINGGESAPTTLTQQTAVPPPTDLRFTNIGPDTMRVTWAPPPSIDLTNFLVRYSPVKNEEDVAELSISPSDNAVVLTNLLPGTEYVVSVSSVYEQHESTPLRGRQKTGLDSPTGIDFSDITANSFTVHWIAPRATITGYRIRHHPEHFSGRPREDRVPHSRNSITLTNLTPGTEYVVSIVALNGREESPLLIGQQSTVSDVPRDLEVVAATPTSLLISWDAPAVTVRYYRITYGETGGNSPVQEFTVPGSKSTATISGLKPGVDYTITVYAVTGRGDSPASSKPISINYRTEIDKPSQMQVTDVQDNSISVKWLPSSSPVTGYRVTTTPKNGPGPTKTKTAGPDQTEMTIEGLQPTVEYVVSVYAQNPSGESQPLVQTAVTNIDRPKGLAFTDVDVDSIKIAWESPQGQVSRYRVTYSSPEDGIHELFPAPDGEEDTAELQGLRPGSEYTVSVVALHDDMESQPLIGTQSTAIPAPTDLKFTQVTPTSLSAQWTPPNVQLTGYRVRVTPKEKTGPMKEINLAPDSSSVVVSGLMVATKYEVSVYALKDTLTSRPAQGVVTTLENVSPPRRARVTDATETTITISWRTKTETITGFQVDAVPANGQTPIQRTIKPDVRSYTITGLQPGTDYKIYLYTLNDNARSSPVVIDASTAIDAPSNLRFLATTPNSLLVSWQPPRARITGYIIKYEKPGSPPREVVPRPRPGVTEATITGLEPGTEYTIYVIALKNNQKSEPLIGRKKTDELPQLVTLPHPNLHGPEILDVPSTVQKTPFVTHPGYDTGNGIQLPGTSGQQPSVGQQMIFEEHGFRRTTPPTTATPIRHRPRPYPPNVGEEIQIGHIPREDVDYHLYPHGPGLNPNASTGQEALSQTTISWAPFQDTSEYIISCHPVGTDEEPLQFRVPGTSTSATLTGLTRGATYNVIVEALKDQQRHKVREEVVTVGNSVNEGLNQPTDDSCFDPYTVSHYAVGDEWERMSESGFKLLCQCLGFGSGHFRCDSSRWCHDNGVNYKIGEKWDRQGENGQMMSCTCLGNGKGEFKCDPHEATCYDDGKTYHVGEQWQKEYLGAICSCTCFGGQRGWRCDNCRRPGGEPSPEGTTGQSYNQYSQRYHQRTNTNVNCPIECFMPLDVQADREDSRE
# uPAR-bound u-PA = uPAR-bound u-PA (Homo sapiens, UniProt P00749); type: cell-based
# Experimental: U937 cells were grown in suspension in RPMI 1640 medium supplemented with 5% heat-inactivated fetal calf serum. PMA-stimulation of U937 cells was performed at a cell density of […] cells/ml with 150 nM PMA for 4 days. The adherent cell population was harvested with a rubber scraper and resuspended in PBS. […] The effect of PAI's on the activity of cell-bound u-PA was determined by the addition of varying concentrations of PAI-1 (0.18-18.4 nM) or PAI-2 (1.13-56.7 nM) to the incubations at the same time as the addition of plasminogen. Curves were then constructed of plasmin concentration against time. […] [pln]∞ was calculated from the relationship: [[…]]0) equation.2 where Δ[pln]0 is the initial rate of plasmin generation which was determined in control incubations in the absence of inhibitors. […] Association rate constants (second-order rate constants) were calculated from the slope of the line of double reciprocal plots of kapp against inhibitor concentration.
# u-PA = u-PA (Homo sapiens, UniProt P00749); assay: Inhibition of u-PA in solution by PAI's (association rate constants); type: biochemical
# Text: Plasminogen was purified from fresh human plasma as previously described (Danø and Reich, 1979), and was further separated into its two isoforms by elution from lysine-Sepharose with a linear gradient of 6-amino-hexanoic acid. Plasminogen isoform 2 was used in all experiments described here. u-PA (Mr 55,000) was obtained either by plasmin activation of pro-uPA (Ellis et al., 1987) or as Ukidan (Serono). Both preparations were greater than 95% high molecular weight u-PA by SDS-polyacrylamide gel electrophoresis. The concentration of active u-PA in these preparations was determined by active-site titration with p-nitrophenyl-p-guanidinobenzoate (Sigma Chem. Co.). DFP-inactivated u-PA was prepared as described in Example 1. […] The concentrations of active inhibitor in the various PAI preparations were determined by titration against u-PA immediately before use in the kinetic experiments. […] Residual u-PA activity was then measured by hydrolysis of 0.2 mM Glu-Gly-Arg-AMC (Bachem, Switzerland).
# The effect of PAI's on the activity of cell-bound u-PA was determined by the addition of varying concentrations of PAI-1 (0.18-18.4 nM) or PAI-2 (1.13-56.7 nM) to the incubations at the same time as the addition of plasminogen. […]
# [pln]∞ was calculated from the relationship: […]
# where Δ[pln]0 is the initial rate of plasmin generation which was determined in control incubations in the absence of inhibitors. […]
molecule,measurement,setting,value
"NC[C@H]1CC[C@H](C(=O)O)CC1 [TA, tranexamic acid]",Plasmin activity recovered from the cells,HT-1080 cells,no plasmin activity could be recovered from the cells
Plg: native human plasminogen (glutamic acid N-terminal) purified from human plasma on lysine-Sepharose,Kd,laminin,3 nM
same,Kd,cultured cells,1000 nM
same,Kd,fibronectin,90 nM
"PAI-2: human type-2 plasminogen activator inhibitor purified from U937 cells (protein, UniProt P05120 1-415, looked up) Plasminogen activator …: MEDLCVANTLFALNLFKHLAKASPTQNLFLSPWSISSTMAMVYMGSRGSTEDQMAKVLQFNEVGANAVTPMTPENFTSCGFMQQIQKGSYPDAILQAQAADKIHSSFRSLSSAINASTGNYLLESVNKLFGEKSASFREEYIRLCQKYYSSEPQAVDFLECAEEARKKINSWVKTQTKGKIPNLLPEGSVDGDTRMVLVNAVYFKGKWKTPFEKKLNGLYPFRVNSAQRTPVQMMYLREKLNIGYIEDLKAQILELPYAGDVSMFLLLPDEIADVSTGLELLESEITYDKLNKWTSKDKMAEDEVEVYIPQFKLEEHYELRSILRSMGMEDAFNKGRANFSGMSERNDLFLSEVFHQAMVDVNEEGTEAAAGTGGVMTGRTGHGGPQFVADHPFLFLIMHKITNCILFFGRFSSP",Rate of inhibition of cell-bound u-PA relative to u-PA in solution,uPAR-bound u-PA; U937 cells,approximately 60%
same,Association rate constant,uPAR-bound u-PA; u-PA bound to uPAR on PMA-stimulated U937 cells,110000 M⁻¹ s⁻¹
same,Association rate constant,uPAR-bound u-PA; u-PA bound to uPAR on U937 cells,330000 M⁻¹ s⁻¹
same,Association rate constant,u-PA; direct assay with u-PA specific fluorogenic peptide substrate,520000 M⁻¹ s⁻¹
same,Association rate constant,u-PA; plasminogen activation assay,530000 M⁻¹ s⁻¹
